Laboratory results: the supplement of paper PMC12042874
± gives the uncertainty stated by the source.

experiment: amyloid nucleation score (Sup35N fusion, yeast selection) (log enrichment); library NNK2; higher = more nucleation; inactive = no reads after selection
Method in brief: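 The nucleation score is the DiMSum log enrichment of output over input reads, centred on the mode score of non-aggregating sequences. Only sequences with 100 or more input reads were scored, using Illumina sequencing of input and output plasmid inserts. Psi-negative yeast expressing Sup35N fused to peptides of 20 random codons were induced 24 hours with 100 μM copper sulfate and grown 7 days at 30°C on medium lacking adenine and uracil.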

In order of falling amyloid nucleation score:
1. SWCCTSIYHVRLW  9.427 ± 0.058
2. SSRNASGYAWRVSNCVCVWG  7.9 ± 0.079
3. SVRMVFIGNLSRGNWSALWS  7.627 ± 0.037
4. SYHGVRLFDIHIGSLKFQQ  7.549 ± 0.054
5. SPSTAMFGPMYSVCIHCEYL  7.395 ± 0.051
6. SVNYVCISLVVM  7.14 ± 0.072
7. STVWVFRYYNNYWYDQRTLP  6.807 ± 0.054
8. STCVCYGSFCEASLWASLDG  6.58 ± 0.075
9. TFAIIQYRNCLVTPISFKHF  6.5 ± 0.081
10. SSVISLNILFFMGEPENSLL  6.424 ± 0.05
11. SRLGVFMYANVLWGKQSRND  6.267 ± 0.058
12. TEIRLNVSLRSRRGPCPTRL  6.06 ± 0.06
13. SVCGLWWLSHSVQRWSEWYS  5.99 ± 0.067
14. SRFCSIIITMNVNHLPV  5.79 ± 0.068
15. SRVEVNALVLISYYPVLDTA  5.736 ± 0.039
16. SREYDCYLWRNLVWNCWMNW  5.638 ± 0.048
17. SQTMVITFFSRCDVQIVKIN  5.583 ± 0.03
18. SNYVFTNRGLIFRDFRVSDE  5.56 ± 0.086
19. SMVFFGPFIFYVANPITSFV  5.54 ± 0.068
20. SVQFRMIQDLRVAADGRPRA  5.545 ± 0.05
21. SWSCMTRW  5.464 ± 0.049
22. STVPRVSLLLAPCQVIVAWE  5.449 ± 0.05
23. TCNSSGPMMRCLIHWETRHR  5.17 ± 0.093
24. SNDLTCTYVRIQCWAMEPAS  5.142 ± 0.039
25. SVESIYLVVDVMMLGELCCA  4.849 ± 0.034
26. SSMILLVYCPYVPWNRSRR  4.8 ± 0.041
27. SRDAKRALFDLDHRTRWDHK  4.62 ± 0.079
28. SSIRLFCFTMAHVHMTDSHD  4.53 ± 0.11
29. SREINITLGKTFYPSRMYGV  4.48 ± 0.05
30. STCSTGHRSLRTKKRNSILS  4.34 ± 0.096
31. SWDHDYCGRWWCSNARGKIN  4.3 ± 0.07
32. SSFLATVSVQCNDRYNSHRS  4.26 ± 0.064
33. SSYGIFVVGMLGSCRVQSRF  3.79 ± 0.041
34. SSLFYERRIQLCVFI  3.63 ± 0.077
35. SPFIRHLNGSICRDNYFYVG  3.03 ± 0.063
36. TAVVLTTGLHVIQVLWHN  2.94 ± 0.12
37. SYDIFWILWLASCMLILYII  2.92 ± 0.099
38. SYWSLRLFCFQLCLDHYRNG  2.74 ± 0.21
39. SVLLVSLDFSPITGYSKGGL  2.72 ± 0.082
40. SSQSRSISYGLGNCWSWWL  2.71 ± 0.081
41. SYPACRNRAVVRARGVVNLW  2.7 ± 0.18
42. TCVVMAKGKLVVPVQEYPCV  2.62 ± 0.11
43. SVVLYMLVLLDADLSVKTRD  2.52 ± 0.06
44. SMLSSMYFKFPL  2.07 ± 0.16
45. STYPILR  2.02 ± 0.18
46. SSKETGRRTVDRFQYMTRYR  1.94 ± 0.32
47. STQYPTMVERLS  1.75 ± 0.3
48. SWVNMIMNMSLHTDIRYMLY  1.66 ± 0.25
49. SVKLHSGGSWLRTWDWPRVC  1.55 ± 0.21
50. SWATLRVCNIFCMITCSYFM  1.51 ± 0.15
51. TDYLGLWPWVSSSLGRVVTW  1.22 ± 0.45
52. TAHGAQWVPDWWEPVTSAYW  1.21 ± 0.21
53. STTHHARRFVSHESACLGAV  1.11 ± 0.17
54. SVLCEGTPEETTFLSDRLSG  1.09 ± 0.27
55. SYNKMMVDRFKYADLRDVRA  1.03 ± 0.38
56. SMGINSGGRWRADSVSVGLR  0.786 ± 0.23
57. TAVWDL  0.745 ± 0.42
58. SSRTMRFNVRG  0.722 ± 0.26
59. STSRCMRLHWGTFNYCSNIF  0.721 ± 0.35
60. TDAGNKGNTTCNRRSACLFY  0.669 ± 0.74
61. SYDLELAT  0.667 ± 0.18
62. STWHLFWSP  0.654 ± 0.26
63. SNGFREYCATICNGTGDRRG  0.651 ± 0.62
64. SMASGILCDAAYNACSQGCG  0.632 ± 0.48
65. TCNWGMDG  0.553 ± 0.62
66. SNIYRCPVMSIRSVSHS  0.536 ± 0.66
67. SPWKTFMQVLWDTWVARVCL  0.515 ± 0.28
68. SVVGQKVGGR  0.487 ± 0.33
69. SSDLAGQRLSLCWVLCTG  0.474 ± 0.53
70. SNFSMVCAVCV  0.454 ± 0.34
71. STCGEAVKTFLVGLFELFMV  0.452 ± 0.66
72. SYSYDRVRKDTELARRNRAV  0.436 ± 0.44
73. TCIYSYRRNSCRIGCLRSWR  0.425 ± 0.6
74. SNLLWAKSGPKAVWKPGRWD  0.423 ± 0.41
75. SPHLGLMCK  0.416 ± 0.8
76. TDKIWSCHLGQTAWLSKSSG  0.385 ± 0.33
77. SYFGSAHKVAEAHL  0.377 ± 0.45
78. SVGYWTVDSVTSVATPLFLA  0.331 ± 0.35
79. SYILGILFVFYVCETKYLYL  0.328 ± 0.25
80. SWVRVDHLNDMYRFELK  0.286 ± 0.46
81. SSFAARRR  0.276 ± 0.28
82. SSLNHNPGWTEIYELHLVGF  0.27 ± 0.8
83. SYANCNLNVNTLREEVHERW  0.268 ± 0.62
84. TDVAY  0.258 ± 0.2
85. SVGSGPVSSLRRKHDRGDTP  0.253 ± 0.35
86. SRPMTWGRKDVGSGSLQDYA  0.248 ± 0.33
87. SMNFRTTSSHSDILYPALC  0.24 ± 0.48
88. SYACNRYKRMTAQIRNQGGM  0.225 ± 0.42
89. SRVIVTDFVNSNATA  0.218 ± 0.51
90. SVNWTRLRECKPWMQVFNRG  0.208 ± 0.56
91. SVIDFLLAYRKDLWCWDLT  0.19 ± 0.8
92. TDYGLVALSQWKRVCLIQSG  0.176 ± 0.22
93. SMLRY  0.171 ± 0.6
94. SNFVQSGG  0.138 ± 0.46
95. SVKQGN  0.132 ± 0.22
96. SMSLRTCSLSFVSWMKFKDG  0.095 ± 0.45
97. SSYLGMENQRLMRKESGCCL  0.09 ± 0.41
98. TARDVFIAVFA  0.089 ± 1.1
99. SSRQSW  0.082 ± 1
100. TCYTTSVRNSTS  0.082 ± 0.36
101. SYWNLRQVVSIDDCMQSTFN  0.058 ± 1
102. SPTER  0.053 ± 0.65
103. SRTYATRLQLM  0.007 ± 0.76
104. SVGPLLYATMSMAGDSVAGA  0.004 ± 0.34
105. SVCYGSSIWN  -0.083 ± 0.39
106. SYEAGMHVNKGYLQVMCVDG  -0.086 ± 0.23
107. SWCLKRRTPHFVQVYHRNND  -0.095 ± 0.26
108. SMRYDRDNHKHPFNIEAMRY  -0.096 ± 0.46
109. SYDPSVMAVGSH  -0.135 ± 0.33
110. SSCRGIEWRFQTGNITQWLG  -0.165 ± 0.23
111. SWNTVVFSGKDNSILGVLAQ  -0.176 ± 0.45
112. SRTDRLDGCAWLLYDCTMGD  -0.211 ± 0.53
113. SYTCSS  -0.211 ± 0.48
114. SSVMPAVIAFACCCNKSTFA  -0.237 ± 0.38
115. SVYLVG  -0.271 ± 0.65
116. SWFWVPGNQLLMTIEGFQWS  -0.281 ± 0.35
117. SQRRKQLEYHAVLWY  -0.289 ± 0.76
118. SRIIYMPPPVCHESLGKRPV  -0.296 ± 0.63
119. TCSFMMCLPTRLARIIDPWM  -0.322 ± 0.49
120. SMYPGLDT  -0.353 ± 0.79
121. SWWIGASEVVHGSKSEGI  -0.357 ± 1.1
122. SVFYVSKSSLTPDLDSVFLS  -0.376 ± 0.48
123. STRDQQWMMRNRG  -0.381 ± 0.79
124. SQRHRAFTSWRGLMRYN  -0.476 ± 1.1
125. SYIWR  -0.551 ± 0.64
126. SRTDVPSTMLLSESRAVNYY  -0.569 ± 1.1
127. SPKRFTCSGDCSR  -0.573 ± 0.78
128. SVLSLTKMFGFVADGSRIIK  -0.574 ± 0.5
129. SVMFMNSSFQRAT  -0.586 ± 0.42
130. SRPFMIYREYVASSIVSNQL  -0.606 ± 0.29
131. SSSLSWLS  -0.609 ± 0.76
132. SMFLMSCTDGVFHNRNLHVI  -0.662 ± 0.44
133. SNGFGCAEVSGYYVSN  -0.691 ± 0.79
134. SNSFVVFSRVVTRKFVCVLW  -0.691 ± 0.46
135. TAKSVVA  -0.703 ± 0.29
136. SQKLSIQYQLRYFILLVKPR  -0.704 ± 0.5
137. TDCVKTRPCGRLVKIPLYME  -0.708 ± 1.1
138. SMTTH  -0.777 ± 0.36
139. SVQSSWLNLLAVYIVFCCQR  -0.833 ± 0.54
140. SSYTKMC  -0.934 ± 0.78
141. SMDRLRRDGYLGSVVCYNRS  -0.935 ± 0.54
142. SSYKTLPAMLVARMLINYTV  -1.02 ± 0.45
143. STSVTMHSLSDF  -1.02 ± 0.78
144. SVSETLWYDYIFKFVISVAN  -1.03 ± 0.63
145. TETAL  -1.05 ± 0.61
146. SVDHLDSVFDYFHVRYKFIS  -1.09 ± 1.1
147. SYYLALYLMEYFYLDDARLN  -1.2 ± 1
148. TDLYCFSSI  -1.29 ± 1
149. SYLLSKMQHFLMVTK  -1.32 ± 0.53
150. SRAIECVRIYTFNSHSWFIA  -1.38 ± 1.1
151. TDASYNRMVTYFKWIISGYR  -1.39 ± 0.54
152. SSCGYLKTTFSKLSEAHCYR  -1.45 ± 1.1

For SNWCGFSSTIKSESY, the amyloid nucleation score was “inactive”.
In the case of SPSLVTNFVENGFFGVDLLS, the amyloid nucleation score is reported as “inactive”.
With SRLVVRN the amyloid nucleation score was “inactive”.
With SSIWPIPFYILGVFKVSSVW the amyloid nucleation score was “inactive”.
In the case of SSSWSNTHRFCLRTL, the amyloid nucleation score is reported as “inactive”.
For STLVDGGTGYMCYFFAWHQS, the amyloid nucleation score was “inactive”.
With SVLAFKSFGSHCIGYIYVNL the amyloid nucleation score was “inactive”.
For SVVLFEYGWICEIIEGSDII, the amyloid nucleation score was “inactive”.
For SVVVCWGKFLSGVGAWLFHS, the amyloid nucleation score was “inactive”.
For SYGWFCSRVIFWRSGNFYWK, the amyloid nucleation score was “inactive”.
In the case of SYNFM, the amyloid nucleation score is reported as “inactive”.
For SYVNKWAECLSCTTEYTMSK, the amyloid nucleation score was “inactive”.
In the case of SYWGQIGRSHTSCLCPSDQV, the amyloid nucleation score is reported as “inactive”.
With TACVSWGPSYWV the amyloid nucleation score was “inactive”.
In the case of TAFSNRCLIQSQKSYLQFSV, the amyloid nucleation score is reported as “inactive”.
With TAGLYDKTLFYSFYLRYPKF the amyloid nucleation score was “inactive”.
With TCIDEGEVVLDFFNVIKVLC the amyloid nucleation score was “inactive”.
For TCWKDYIYIFALVNYSGHRA, the amyloid nucleation score was “inactive”.
